Measured values taken from patent publication US20260217818A1 (Y BIOLOGICS, published 2026).

T1: human claudin-18.2 (claudin-18 spliced variant 2, CLDN18.2) overexpressed on HEK293E/18.2 or CHO-K1/18.2 cells (human, UniProt P56856 1-261)
T1 sequence: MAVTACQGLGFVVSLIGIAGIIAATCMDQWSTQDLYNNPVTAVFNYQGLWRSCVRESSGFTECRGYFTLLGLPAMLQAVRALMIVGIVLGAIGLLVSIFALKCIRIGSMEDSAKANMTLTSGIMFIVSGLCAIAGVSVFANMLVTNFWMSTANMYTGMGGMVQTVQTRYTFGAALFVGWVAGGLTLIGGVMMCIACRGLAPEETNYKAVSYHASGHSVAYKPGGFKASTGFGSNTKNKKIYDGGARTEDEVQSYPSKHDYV

T2: human CLDN18.1 protein (EUPROTEIN, #EPY255141), coated antigen (human, UniProt P56856 1-261, limits assumed)
T2 construct: Bought antigen; also called CLDN18.1 antigen
T2 sequence (looked up): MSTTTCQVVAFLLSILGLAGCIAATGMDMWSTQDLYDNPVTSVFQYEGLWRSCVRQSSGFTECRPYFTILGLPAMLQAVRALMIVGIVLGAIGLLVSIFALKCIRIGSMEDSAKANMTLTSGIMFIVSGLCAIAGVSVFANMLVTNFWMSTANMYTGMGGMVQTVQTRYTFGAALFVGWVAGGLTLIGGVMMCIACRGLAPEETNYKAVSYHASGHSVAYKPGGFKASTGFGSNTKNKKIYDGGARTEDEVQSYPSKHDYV

T3: human CLDN18.2 protein (CUSABIO, #CSB-MP005498HU (A5)), coated antigen (human, UniProt P56856 1-261)
T3 construct: also called CLDN18.2 antigen; CLDN18.2-VLPs antigen
T3 sequence: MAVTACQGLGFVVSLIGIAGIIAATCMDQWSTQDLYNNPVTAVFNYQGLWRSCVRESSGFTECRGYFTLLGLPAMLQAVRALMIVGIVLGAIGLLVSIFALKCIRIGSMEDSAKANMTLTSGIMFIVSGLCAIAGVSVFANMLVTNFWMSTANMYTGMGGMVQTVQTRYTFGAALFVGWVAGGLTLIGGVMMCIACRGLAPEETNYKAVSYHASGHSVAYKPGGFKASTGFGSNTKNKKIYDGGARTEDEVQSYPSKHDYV


Assays:
[1] = target: T1, human claudin-18.2 (claudin-18 spliced …); test: cell-based or functional assay
[2] = target: T1, human claudin-18.2 (claudin-18 spliced …); test: cell-based or functional assay; remark: listed apart in the source
[3] = target: T2, human CLDN18.1 protein (EUPROTEIN, …); test: ELISA, CLDN18.1 coated at 1 µg/mL, serially diluted antibody
Procedure: (§1) CLDN18.1 (EUPROTEIN, #EPY255141) and CLDN18.2 (CUSABIO, #CSB-MP005498HU (A5)) proteins were each prepared at a concentration of 1 μg/mL using a dilution buffer (4% skim milk/0.05% tween-20/PBS), and 100 μL of each was added to individual wells of an immunoassay plate (Thermo, #439454) and incubated statically at 4° C. for more than 16 hours. After three washes with 300 μL of wash buffer (0.05% tween-20/PBS), 200 μL of blocking buffer (4% skim milk/0.05% tween-20/PBS) was added to the wells and incubated for 1 hour at room temperature. After three washes, 100 μL of the anti-CLDN18.2 antibodies, each prepared by serial dilution, was added to each well and incubated at room temperature for 1 hour with rocking. After three washes, 100 μL of anti-human kappa-HRP (Sigma, #A7164) antibody, prepared at dilution ratio of 1:3,000, was added to each well and incubated at room temperature for 1 hour. After three washes, 100 μL of TMB substrate (Sigma, #T0440) was added to each well and incubated in the dark at room temperature, and when color development was observed, 50 μL of stop solution (1N H₂SO₄) was added to stop the reaction. Absorbance was measured using a microplate reader (Promega, GM3000).

[4] = target: T3, human CLDN18.2 protein (CUSABIO, …); test: ELISA, CLDN18.2 coated at 1 µg/mL, serially diluted antibody
Procedure: as §1

Binder	cellular internalization (IncuCyte FabFluor, HEK293E/18.2 cells) [1] [%]	Cell viability (%) at 10 nM, HEK293E/18.2 (Fab-ZAP assay) [2] [%]	IC50 (nM), HEK293E/18.2 (Fab-ZAP assay) [2] [nM]	binding result [3]	binding result [4]
0058-001 (antibody, V domains shown, scFv clone from a human phage library, converted into IgG form for the experiments; also called anti-CLDN18.2 antibody 0058-001; monoclone 0058-001) VH: QVQLVESGGGLVQPGGSLRLSCAASGFTFSSYAMSWVRQAPGKGLEWVAAISGSGGSTYFADSVRGRFTISRDNPQSTLYLQMNSLRAEDTAVYYCAKEGVWWLRYFDHWGQGTPITVSS VL: QSALTQPRSVSGSPGQSVTISCTGTSNDVGGYTYVSWYQQHPGKAPKLMIYDVSKRPSGVPDRFSGSKSGNTASLTISGLQAEDEADYYCSSYAGSYTWVFGGGTKLTVL	50	76	0.1	no binding	binds
0058-002 (antibody, V domains shown, scFv clone from a human phage library, converted into IgG form for the experiments; also called anti-CLDN18.2 antibody 0058-002; monoclone 0058-002) VH: QMQLVESGGGLVQPGGSLRLSCAASGFTFSSYAMSWVRQAPGKGLEWVSAISGSGGSTYYADSVKGRFTISRDNSKNTLYLQMNSLRAEDTAVYYCARGLGYYYYGMDVWGQGTTVTVSS VL: DIQMTQSPSSLSASVGDRVTITCRASQTVSSWLAWYQQKPGKAPKLLIYAASSLQSGVPSRFSGSGSGTEFTLTISSLQPEDFGTYYCQQYHSFPPTFGGGTKVGIK	50	58	0.04	no binding	binds
0058-003 (antibody, V domains shown, scFv clone from a human phage library, converted into IgG form for the experiments; also called anti-CLDN18.2 antibody 0058-003; monoclone 0058-003) VH: QVQLVQSGGGLVQPGGSLRLSCAASGFTFSSYAMSWVRQAPGKGLEWVSAISGSGGSTYYADSVKGRFTISRDNSKNTLYLQMNSLRAEDTAVYYCARGAASSYYFDYWGLGTTVTVSS VL: DIQMTQSPSSLAAYVGDTVTITCRASAGVRNYLAWVQQKPGKAPRSLIYGAFKLQSGVPSRFSGSGSGTEFTLTISSLQPEDFGTYYCQQYHSFPPTFGGGTKVDIK	50	56	0.04	no binding	binds
